Reference: patent publication US20170190788A1, “USES OF ANTI-HER3 ANTIBODIES FOR TREATING CANCER” (BULLDOG PHARMACEUTICALS, INC., priority 2014, published 2017)
“Also recorded” adds a separate entry of the source.

Tests used:
ErbB3 (HER3) = molecular target: T1, ErbB3 (HER3) (Homo sapiens (Human), UniProt P21860 20-1342); assay: binding of fluorescent probe to HT29, A375, A2058 and WM115 cells; mean fluorescence intensity, total over non-specific (excess unlabelled probe)
T1 construct: They are human tumour lines, so human HER3 is meant; also called HER3 receptor
Procedure: The effects of trametinib and vemurafenib on cell-surface expressed ErbB3 were also monitored. HT29, A375, A2058 and WM115 cells were treated with 100 nM trametinib or 1 μM vemurafenib for 24 hours at 37° C. […] Specific binding was determined by calculating the mean fluorescent intensity ratio of total binding (labeled probe alone) divided by the non-specific binding (labeled probe with excess of unlabeled probe). Values should be reported as the binding ratio of drug-treated samples divided by the untreated sample.

[1] = test system: B-Raf mutated cell lines (H29, A375, A2058 and WM115); assay: Cell proliferative assays in B-Raf mutated cell lines; type: cell-based; settings: four B-Raf mutated cell lines
Procedure: To investigate whether NRG signaling attenuates the anti-proliferative effects of trametinib or vemurafenib, cells were exposed to the drugs in the presence or absence of NRG. In addition, 2C2-YTE was introduced in a separate set of samples. Cell proliferative assays were performed in all four B-Raf mutated cell lines (H29, A375, A2058 and WM115).

binding result (ErbB3 (HER3))	Molecule	effect of NRG on anti-proliferative effects of trametinib or vemurafenib [1]
binds	2C2-YTE anti-HER3 antibody (antibody, V domains shown, In the phosphorylation and proliferation assays it was unlabelled; also called 2C2-YTE mutant antibody; anti-HER3 antibody (2C2-YTE); not shown: human lambda light chain constant region) VH: EVQLLESGGGLVQPGGSLRLSCAASGFTFSYYYMQWVRQAPGKGLEWVSYIGSSGGVTNYADSVKGRFTISRDNSKNTLYLQMNSLRAEDTAVYYCARVGLGDAFDIWGQGTMVTVSS VL: QSVLTQPPSASGTPGQRVTISCSGSLSNIGLNYVSWYQQLPGTAPKLLISRNNQRPSGVPDRFSGSKSGTSASLAISGLRSEDEADYYCAAWDDSPPGEAFGGGTKLTVL	
	NRG: neuregulin, HER3 ligand used to stimulate cells (protein) SHLVKCAEKEKTFCVNGGECFMVKDLSNPSRYLCKCPNEFTGDRCQNYVMASFYKHLGIEFMEAE	can robustly attenuate the effects of BRAF and MEK inhibitors; also recorded: attenuates the anti-proliferative effects of the BRAF and MEK inhibitors
